# Experiments:
# HaCat cells = test: Proliferation and viability of HaCat cells measured by mitochondrial activity (WST-1); type: cell-based, human; conditions: LL-37 100 μg/ml, 10% serum, 48 h
# Procedure: HaCat cells were used for these experiments. HaCat cells are an immortalized human keratinocyte cell line (Boukamp et al., J Cell Biol 106:761-771, 1988), which is suitable for experimental keratinocyte research. HaCat cells were cultured in medium (DMEM, +10% FCS and PEST). Both types of cell cultures were treated with synthetic, bioactive LL-37 (lot YS 5253). In addition a mixture of LL-37 (114 μg/ml) and CPL-Galactolipid (0.2%) in medium containing serum at either 2 or 10% was added to evaluate the capacity to increase proliferation and inhibit cytotoxicity. Cells were harvested at different time-points (24 h, 48 h, 72 h and 96 h) and counted by flowcytometry (Becton-Dickinson) and stained by Trypan-Blue to evaluate viability. […] Proliferation and viability were also ascertained by measuring mitochondrial activity (WST-1, Roche, Cook et al. Anal Biochem 179:1-7, 1989).
# [1] = Circular dichroism (CD) conformational measurements; type: physicochemical
# Procedure: Samples for circular dichroism (CD) measurements were prepared in 10 mM aqueous phosphate buffer solution, pH 7.0, containing 200 ppm LL-37 (as the trifluoroacetate, lot 971/26), with and without 0.40% CPL-Galactolipid. The samples, 20 ml in 50 ml glass flasks, were vigorously shaken with an ST mixer (type B1, E. Büchler, Tübingen) set at 7.5 (corresponding to an approximate frequency of 220/min) for 2 h. They were then allowed to equilibrate and settle over night at 2-8° C.
# CD spectra were recorded on a Jasco J-720 (Jasco Inc.) spectropolari-meter. The sample compartment with the cuvette cell (1 mm path length) was placed near the photomultiplier, in order to reduce effects of light scattering from the disper-sions. The samples were measured at room temperature and scanned from 280 to 200 nm at a rate of 20 nm/min, with a resolution of 1 nm and 3 accumulations per run. The results are expressed as the mean residue ellipticity, [θ], and the percentage of α-helical conformation at 222 nm is estimated by the following formula: ([θ]222+3900)·100/41900.
sequence,measurement,setting,value
LLGDFFRKSKEKIGKEFKRIVQRIKDFLRNLVPRTES [LL-37],Absorbance,HaCat cells,1.110
same,Trypan Blue + (%),HaCat cells,<1%
same,Increased Proliferation (%),HaCat cells; vs baseline,78%
same,percentage α-helical structure,"[1]; 200 ppm LL-37 in 10 mM phosphate buffer, pH 7.0, from minimum at 222 nm",about 63%
same,percentage α-helical structure,"[1]; 200 ppm LL-37 with 0.40% (w/w) galactolipid, 10 mM phosphate buffer pH 7.0",~64%
same,percentage α-helical structure,"[1]; LL-37 with POPG (anionic phospholipid), same conditions",58%

# Source: patent US8936807B2, “Use of the cathelicidin LL-37 and derivatives thereof for wound healing” (Lipopeptide AB, priority 2003, dated 2015)
